Assay results taken from patent US20240288436A1 (KOREA ATOMIC ENERGY RESEARCH INSTITUTE, published 2024).
Where a chain is given by its changes, count along the chain named. In names and notes the source's numbering stands. Each block holds one binder with its values, some of them ahead of it.

Assays:
BSA = target: T1, BSA (UniProt P02769 25-607); experiment: indirect ELISA on coated BSA (1 µg/ml), anti-human IgG kappa-HRP, OD490nm
T1 construct: Coated at 1 ug/ml as the specificity control; also called BSA solution
T1 sequence (P02769 25-607 limits assumed): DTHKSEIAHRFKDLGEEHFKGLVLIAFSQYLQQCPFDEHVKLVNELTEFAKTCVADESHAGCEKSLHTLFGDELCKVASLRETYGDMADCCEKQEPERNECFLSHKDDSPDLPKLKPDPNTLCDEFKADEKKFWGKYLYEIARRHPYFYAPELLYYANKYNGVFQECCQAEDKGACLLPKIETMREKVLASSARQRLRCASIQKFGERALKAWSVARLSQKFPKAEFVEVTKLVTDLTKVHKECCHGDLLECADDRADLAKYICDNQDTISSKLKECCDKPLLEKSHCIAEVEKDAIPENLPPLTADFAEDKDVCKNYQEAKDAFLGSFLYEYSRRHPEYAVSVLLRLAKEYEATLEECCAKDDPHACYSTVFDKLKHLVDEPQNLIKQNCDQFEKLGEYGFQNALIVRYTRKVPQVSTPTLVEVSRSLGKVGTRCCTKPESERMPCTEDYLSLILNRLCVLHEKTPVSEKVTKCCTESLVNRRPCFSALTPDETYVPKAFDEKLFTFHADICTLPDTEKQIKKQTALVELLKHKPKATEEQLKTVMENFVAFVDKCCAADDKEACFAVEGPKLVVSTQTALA
Protocol: Specifically, the humanized antibody was manufactured in 10 types of Hz2B7-1.1, Hz2B7-1.2, Hz2B7-1.3, Hz2B7-2.1, Hz2B7-3.1, Hz2B7-3.2, Hz2B7-3.3, Hz2B7-4.1, Hz2B7-4.2 and Hz2B7-4.3, by combining 4 heavy chain variable region variants and 3 light chain variable region variants designed through Examples 1 and 2 above. For this, 100 μ of TM4SF4-BSA (1 μg/m ) or BSA solution (1 μg/M ) dissolved in coating buffer (100 mM carbonate/bicarbonate coating buffer, pH 9.6) was added to the bottom of each well of a 96-well plate and adsorbed at 4° C. for more than 16 hours. Next, the coated antigen was washed three times with washing buffer (wash buffer, 0.05% PBS-T, Tween-20), then 200 μ of block buffer (blocking buffer, 5% skim milk in wash buffer) was added to the bottom of each well where the antigen was not adsorbed, reacted at 4° C. for more than 16 hours, and then washed again three times with washing buffer. Then, the 10 combinations of the humanized antibodies and the chimeric antibodies purified through Experimental Example 1 were prepared by diluting them to various concentrations using block buffer, and then 100 μ a of each concentration was added to each well and reacted for 2 hours at room temperature. After washing again three times, 1 mg/ml antibody (α-human IgG-Kappa chain-HRP, Bethyl, USA) for detection was diluted 10,000-fold using block buffer solution, and 100 μ was added to each well and incubated at room temperature for 1 hour. After the reaction was completed, the wells were washed three times with washing buffer, 100 μl of substrate solution (OPD solution, 4 μ 30% H₂O₂, 100 μ OPD stock (40 mg/m ), adjusted to 10 m with phosphate citrate buffer) was added to each well, and the reaction was performed at room temperature. Then, 50 μl of 2.5M H₂SO₄ was added to terminate the reaction. Finally, to measure the activity of the enzyme bound to the solid phase, the absorbance was measured at 490 nm using an ELISA reader (FIG. 10).

[1] = target: T2, Biotin-GSAGGSTWGYPFHDGDYLNDE synthetic peptide (human TM4SF4 aa 126-140) (human, N-terminal biotin); experiment: SPR, Biacore T200, biotin-peptide on streptavidin chip, antibody as analyte, 1:1 binding
T2 construct: Immobilised on a streptavidin sensor chip as the SPR ligand; also called Biotin-hTM4SF4 aa 126-140; human TM4SF4-peptide (hTM4SF4 aa 126-140)
T2 peptide: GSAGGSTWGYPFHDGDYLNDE
Protocol: (§1) First, a streptavidin-conjugated sensor chip (Series S Senser Chip SA, Cytiva) was inserted into Biacore T200 (Cytiva), and activation buffer (1M NaCl, 50 mM NaOH) was flowed for 30 seconds, followed by HBS-EP buffer (Cytiva) to induce activation and stabilization of the sensor chip surface. […] The analyze antibodies of each concentration were flowed through the constructed ligand-bound streptavidin conjugated sensor chip at a rate of 30 ul/min for 480 seconds to induce binding, and then HBS-EP buffer solution was flowed at the same time and speed, and the degree to which the analyte antibody was dissociated from the ligand peptide was obtained in the form of a response unit. The association rate (Ka), dissociation rate (Kd), and equilibrium dissociation constant (KD, Kd/Ka) values were calculated using Biacore T200 evaluation software (Cytiva) by excluding the ligand-unbound sensor chip response values obtained in the same manner. As a calculation standard, the mass transfer fitting model for the interaction between the ligand peptide and the analyte antibody was analyzed using 1:1 binding.

[2] = target: T2, Biotin-GSAGGSTWGYPFHDGDYLNDE synthetic …; experiment: SPR (Biacore T200), biotin-TM4SF4(126-140) peptide captured on SA sensor chip, antibody as analyte, 1:1 binding model with mass transfer
Protocol: as §1

B1: Hz2B7-1.3 humanized anti-TM4SF4 antibody (LC N31V) (antibody, V domains shown)
VH: EITLKESGPTLVKPTQTLTLTCTFSGFSLSTYGIGVSWIRQPPGKALEWLAHIWWNDNKYYNTALKSRLTITKDTSKNQVVLTMTNMDPVDTATYYCARKEGSSAPFAYWGQGTLVTVSS
VL: DIVMTQSPDSLAVSLGERATINCKSSQSLLVSSNQKNYLAWYQQKPGQPPKLLIYFASTRESGVPDRFSGSGSGTDFTLTISLMQAEDVAVYYCQQHYRTPPTFGQGTKVEIK
notes: Whole IgG, human IgG1 / kappa constant regions from the pdCMV-dhfr vector; only VH and VL are tied to the antibody; also called HzE2B7-1.3; HzE2B7-1.3(LC N31V)
binding result (BSA): no binding (tested: 1000 ng/ml)
Kd [1]: 35.4 nM

B2: Hz2B7-1.1 humanized anti-TM4SF4 antibody (antibody, human IgG1, V domains shown)
VH: B1 VH
VL: B1 VL with V31N
notes: Tested as whole IgG from the pdCMV-dhfr vector (human IgG1 heavy constant, human kappa light constant); also called HzE2B7-1.1; HzE2B7-1.1(origin)
binding result (BSA): no binding (tested: 1000 ng/ml)

B3: Hz2B7-3.2 humanized anti-TM4SF4 antibody (HC W55S, LC N31F) (antibody, V domains shown)
VH: B1 VH with W55S
VL: B1 VL with V31F
notes: Whole IgG, human IgG1 / kappa constant regions; also called HzE2B7-3.2; HzE2B7-3.2(HC W55S, LC N31F)
binding result (BSA): no binding (tested: 1000 ng/ml)
Kd [1]: 112 nM
koff [2]: 0.000792 s⁻¹
kon [2]: 7080 M⁻¹ s⁻¹

B4: Hz2B7-1.2 humanized anti-TM4SF4 antibody (LC N31F) (antibody, V domains shown)
VH: B1 VH
VL: B1 VL with V31F
notes: Whole IgG, human IgG1 / kappa constant regions from the pdCMV-dhfr vector; only VH and VL are tied to the antibody; also called HzE2B7-1.2; HzE2B7-1.2(LC N31F)
binding result (BSA): no binding (tested: 1000 ng/ml)

B5: Hz2B7-4.1 humanized anti-TM4SF4 antibody (antibody, human IgG1, V domains shown)
VH: B1 VH with W55Y
VL: B1 VL with V31N
notes: Whole IgG, human IgG1 / kappa constant regions
binding result (BSA): no binding (tested: 1000 ng/ml)

B6: Hz2B7-2.1 humanized anti-TM4SF4 antibody (antibody, human IgG1, V domains shown)
VH: B1 VH with A46V
VL: B1 VL with V31N
notes: as for B5
binding result (BSA): no binding (tested: 1000 ng/ml)

The remaining lines, values ahead:

binding result (BSA): no binding (tested: 1000 ng/ml)
B7: Hz2B7-4.2 humanized anti-TM4SF4 antibody (antibody, human IgG1, V domains shown)
VH: B1 VH with W55Y
VL: B1 VL with V31F
notes: as for B5

binding result (BSA): no binding (tested: 1000 ng/ml)
B8: Hz2B7-4.3 humanized anti-TM4SF4 antibody (HC W55Y, LC N31V) (antibody, V domains shown)
VH: B1 VH with W55Y
VL: B1 VL
notes: Whole IgG, human IgG1 / kappa constant regions; also called HzE2B7-4.3; HzE2B7-4.3(HC W55Y, LC N31V)

binding result (BSA): no binding (tested: 1000 ng/ml)
B9: Hz2B7-3.3 humanized anti-TM4SF4 antibody (antibody, human IgG1, V domains shown)
VH: B1 VH with W55S
VL: B1 VL
notes: as for B5

binding result (BSA): no binding (tested: 1000 ng/ml)
B10: Hz2B7-3.1 humanized anti-TM4SF4 antibody (antibody, human IgG1, V domains shown)
VH: B1 VH with W55S
VL: B1 VL with V31N
notes: as for B5
